From publication doi:10.1101/2023.10.24.563710 (bioRxiv, 2023)

B1: ΔN-P116 (residues 246-818), truncated N-terminal domain and F-loop (domain or fragment, Mycoplasma pneumoniae, UniProt P75556 246-818, looked up)
chain: GVDVFEAQKNLVGKGKYLNTHVKAEDVKKDVNANIKNQFDIAKIIAELMGKALKEFGNQQEGQPLSFLKVMDKVKEDFEKLFNLVRPGLGKFVKDLIQSSSQAENKITVYKLIFDNKKTILNLLKELSIPELNSSLGLVDVLFDGITDSDGLYERLQSFKDLIVPAVKTNEKTAALSPLIEELLTQKDTYVFDLIQKHKGILTNLLKNFLADFQKSTPFMADQVAIFTELFDNEGAFDLFGEADFVDKIAELFLTKRTVKNGEKIETKDSLLVTSLKSLLGEKVAALGDLLDSYIFKNELLNRSVEVAKAEAKDTKGATDYKKEQAKALKKLFKHIGENTLSKTNLDKITLKEVKNTENVELEETETTLKVKKLDVEYKVELGNFEIKNGLIKAMLEFLPDTKDLETTLDKLLFKGESYKAMKDKYIKEGFPGYGWAKGVVPGAFESIENTFKSAIDKTKSIRDLFGDMLFGNDLSSVKETDSFITLGGSFDIKYGGENLNVLPAYYSLINSEIGYQIIGVDTTIDATKVKVELKNKEYKGKSPAINGQVKLSQSFFNVWTNMFDSITKQIFQ
B2: P116 ectodomain (residues 30-957), C-terminally shortened and HIS-tagged (domain or fragment, Mycoplasma pneumoniae, UniProt P75556 30-957, looked up)
chain: NKTHQVEHESEQSDFQDIRFGLNSVKLPKAQPAAATRITVENGTDKLVNYKSSPQQLFLAKNALKDKLQGEFDKFLSDAKAFPALTADLQEWVDQQLFNPNQSFFDLSAPRSNFTLSSDKKASLDFIFRFTNFTESVQLLKLPEGVSVVVDSKQSFDYYVNASAQKLLVLPLSLPDYTLGLNYMFDHITLNGKVVNKFSFNPFKTNLNLAFSNVYNGVDVFEAQKNLVGKGKYLNTHVKAEDVKKDVNANIKNQFDIAKIIAELMGKALKEFGNQQEGQPLSFLKVMDKVKEDFEKLFNLVRPGLGKFVKDLIQSSSQAENKITVYKLIFDNKKTILNLLKELSIPELNSSLGLVDVLFDGITDSDGLYERLQSFKDLIVPAVKTNEKTAALSPLIEELLTQKDTYVFDLIQKHKGILTNLLKNFLADFQKSTPFMADQVAIFTELFDNEGAFDLFGEADFVDKIAELFLTKRTVKNGEKIETKDSLLVTSLKSLLGEKVAALGDLLDSYIFKNELLNRSVEVAKAEAKDTKGATDYKKEQAKALKKLFKHIGENTLSKTNLDKITLKEVKNTENVELEETETTLKVKKLDVEYKVELGNFEIKNGLIKAMLEFLPDTKDLETTLDKLLFKGESYKAMKDKYIKEGFPGYGWAKGVVPGAFESIENTFKSAIDKTKSIRDLFGDMLFGNDLSSVKETDSFITLGGSFDIKYGGENLNVLPAYYSLINSEIGYQIIGVDTTIDATKVKVELKNKEYKGKSPAINGQVKLSQSFFNVWTNMFDSITKQIFQKKYEFKDNIQVFARNEDNTSRLELDISDPEQRVIPFAFVDGFGIQLKAVDKNITKEAGNTEPKSPVIQLYEALNKEKDQKQQSKQSPKQLDTKTQLGYLLKLGDNWSKDDYKSLIDDTIINNNYLEASFNSKITVDRLG

Target: the molecule itself
Assay: cryo-EM structure

Protein	stoichiometry N
B1	2
B2	2
